Data as given in PMC2819628 (The Biochemical journal, 2010).

Biological target: T1, Isu1, mature form (amino acids 35-165) (yeast, UniProt Q03020 35-165)
T1 sequence (looked up): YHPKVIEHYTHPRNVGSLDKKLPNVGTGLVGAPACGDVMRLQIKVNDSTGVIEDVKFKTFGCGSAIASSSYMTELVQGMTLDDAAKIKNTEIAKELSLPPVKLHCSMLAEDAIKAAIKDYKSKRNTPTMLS
Experiment: other fluorescence titration

binding result: binds
B1: Yfh1 (yeast frataxin), wild type, mature form (amino acids 52-174), holo form (natural protein, S. cerevisiae (yeast), UniProt Q07540 52-174, looked up)
chain: VESSTDGQVVPQEVLNLPLEKYHEEADDYLDHLLDSLEELSEAHPDCIPDVELSHGVMTLEIPAFGTYVINKQPPNKQIWLASPLSGPNRFDLLNGEWVSLRNGTKLTDILTEEVEKAISKSQ
